According to patent US20030087407A1:

Tests used:
[1] = molecular target: amyloid β-peptide 1-40 (Aβ1-40) (UniProt P05067); assay: quenching of intrinsic Tyr10 fluorescence of Aβ1-40 in solution by added iAβ, non-linear regression to a rectangular hyperbola
[2] = molecular target: amyloid β-peptide 1-40 (Aβ1-40) (UniProt P05067); assay: cell-based or functional assay
[3] = molecular target: amyloid β-peptide 1-42 (Aβ1-42) (UniProt P05067); assay: cell-based or functional assay
[4] = molecular target: amyloid β-peptide 1-40 (Aβ1-40) (UniProt P05067); assay: quenching of intrinsic Tyr10 fluorescence of Aβ1-40 in solution at approximately 4 µM iAβ

Kd [1]: 75.9 nM
% of amyloid remaining, ThT fluorometric assay, 10-fold molar excess of peptide, 2 days [2]: 25.5 % of amyloid
amyloid formation, thioflavine T fluorometric assay, 24 h, 5-fold molar excess of iAβ (% of amyloid detectable in the absence of inhibitor) [2]: 33.9%
amyloid formation, thioflavine T fluorometric assay, 24 h, 20-fold molar excess of iAβ (% of amyloid detectable in the absence of inhibitor) [2]: 13.7%
% of amyloid remaining, ThT fluorometric assay, 10-fold molar excess of peptide, 2 days [3]: 57.9 % of amyloid
inhibition of amyloid formation, thioflavine T fluorometric assay, 24 h, 5-fold molar excess of iAβ (% of inhibition) [3]: 28.7
inhibition of amyloid formation, thioflavine T fluorometric assay, 24 h, 20-fold molar excess of iAβ (% of inhibition) [3]: 72.3
inhibition of amyloid formation, thioflavine T fluorometric assay, 24 h, 40-fold molar excess of iAβ (% of inhibition) [3]: 80.6
reduction of preformed fibrils, thioflavine T fluorometric assay, 24 h, 40-fold molar excess of iAβ (% fibril reduction) [3]: 51
maximum quenching of the total fluorescence [4]: 12.6%
Binder: RDLPFFPVPID [inhibitor of Aβ fibrillogenesis peptide (iAβ)]
